Results published in the RNAGym collection of RNA variant scans (doi:10.1021/acssynbio.7b00057).

B1: Pistol ribozyme (parent)
chain: GGGUCGUUGUUCCAUAAUCGCGUGGAUAUGGCACGCAAGUUUCUACCGGGCACCGUAAAUGUCCGACUGGAGCCGUUCGGGCGGCUAUAAACAGACCUCAGGCCCGAAGCGUGGCGGCACCUGCCGCCGGUGGUAAAAAAGAUCGGAAGAGCACACGUCU

Variants of: B1
Assay: aptazyme ON/OFF ratio, guanine; higher = stronger switching; co-transcriptional cleavage with and without guanine

Variant | aptazyme ON/OFF ratio
U7G U8A U10C U11C C12G C13A | 1.32
U7G U8A U10C U11C C12G C13U | 1.3
U7G U8A U10C U11C C12G C13G | 1.06
U7G U8A U10G U11C C13G | 1.16
U7G U8A U10G U11C C13U | 1.5
U7G U8A U10G U11C C13A | 1.21
U7G U8C G9A C13A | 1.09
U7G U8C G9A C13G | 1.03
U7G U8C G9A C13U | 1.22
U7G U8C G9A U10A U11C | 1.11
U7G U8C G9A U10A U11G | 1.87
U7G U8C G9A U10A U11A | 3.25
U7G U8C G9A U10C C13A | 1.07
U7G U8C G9A U10C C13U | 1.58
U7G U8C G9A U10C C13G | 1.08
U7G U8A U10G U11A | 2.15
U7G U8A U10G U11G | 1.59
U7G U8A U10G U11C | 2.11
U7G U8A U10G U11G C12U C13G | 1.16
U7G U8A U10G U11G C12U C13U | 1.65
U7G U8A U10G U11G C12U C13A | 1.44
U7G U8C G9A C12A C13G | 1.05
U7G U8C G9A C12A C13A | 1.08
U7G U8C G9A C12A C13U | 1.06

Variant | aptazyme ON/OFF ratio
U7G U8C G9A U10C U11G C12G C13G | 1.08
U7G U8C G9A U10C U11G C12G C13U | 1.05
U7G U8C G9A U10C U11G C12G C13A | 1.08
U7G U8C G9A U10C U11C C12G C13G | 1.05
U7G U8C G9A U10C U11C C12G C13U | 1.09
U7G U8C G9A U10C U11C C12G C13A | 1.15
U7G U8A U11G C12G C13G | 1.32
U7G U8A U11G C12G C13U | 1.4
U7G U8A U11G C12G C13A | 1.16
U7G U8C G9A U10C U11G | 1.5
U7G U8C G9A U10C U11A | 3.52
U7G U8C G9A U10C U11C | 1.16
U7G U8A U10G U11A C12U C13A | 1.37
U7G U8A U10G U11A C12U C13G | 1.37
U7G U8A U10G U11A C12U C13U | 1.1
U7G U8C G9A U10C U11G C12U C13G | 1.22
U7G U8C G9A U10C U11G C12U C13A | 1.26
U7G U8C G9A U10C U11G C12U C13U | 1.18
U7G U8A U11G C13G | 1.15
U7G U8A U11G C13A | 1.2
U7G U8A U11G C13U | 1.21
U7G U8C G9A U10A U11A C12A | 1.28
U7G U8C G9A U10A U11A C12U | 1.4
U7G U8C G9A U10A U11A C12G | 1.22

Variant | aptazyme ON/OFF ratio
U7G U8C G9A U10A C12G C13A | 1.07
U7G U8C G9A U10A C12G C13U | 1.15
U7G U8C G9A U10A C12G C13G | 1.08
U7G U8C G9A C12G C13A | 1.05
U7G U8C G9A C12G C13G | 1.04
U7G U8C G9A C12G C13U | 1.03
U7G U8C C12G C13U | 1.19
U7G U8C C12G C13G | 1.08
U7G U8C C12G C13A | 1.08
U7G U8A U11C C12A C13G | 1.36
U7G U8A U11C C12A C13U | 1.46
U7G U8A U11C C12A C13A | 1.23
U7G U8C G9A U10C U11A C12U | 1.18
U7G U8C G9A U10C U11A C12G | 1.18
U7G U8C G9A U10C U11A C12A | 1.33
U7G U8A U11A C12U C13U | 1.36
U7G U8A U11A C12U C13G | 1.26
U7G U8A U11A C12U C13A | 1.31
U7G U8A U10C U11A C12G C13G | 1.22
U7G U8A U10C U11A C12G C13U | 1.38
U7G U8A U10C U11A C12G C13A | 1.25
U7G U8A U10C U11A C12A C13A | 1.49
U7G U8A U10C U11A C12A C13G | 1.23
U7G U8A U10C U11A C12A C13U | 1.39

Variant | aptazyme ON/OFF ratio
U7G U8A U11G C12A C13A | 1.24
U7G U8A U11G C12A C13U | 1.34
U7G U8A U11G C12A C13G | 1.37
U7G U8C G9A U10C C12U | 1.37
U7G U8C G9A U10C C12A | 1.18
U7G U8C G9A U10C C12G | 1.29
U7G U8C G9A U10A U11C C12G C13G | 1.03
U7G U8C G9A U10A U11C C12G C13U | 1.09
U7G U8C G9A U10A U11C C12G C13A | 1.08
U7G U8C G9A U10C U11C C12U | 1.09
U7G U8C G9A U10C U11C C12A | 1.16
U7G U8C G9A U10C U11C C12G | 1.16
U7G U8C G9A U10C U11C C12U C13U | 1.06
U7G U8C G9A U10C U11C C12U C13A | 1.04
U7G U8C G9A U10C U11C C12U C13G | 1.04
U7G U8A U10C C12U | 2.18
U7G U8C G9A | 4.1
U7G U8C G9A U10C U11G C12G | 1.12
U7G U8C G9A U10C U11G C12U | 1.37
U7G U8C G9A U10C U11G C12A | 1.07
U7G U8A U10C U11G C12G C13G | 1.11
U7G U8A U10C U11G C12G C13A | 1.26
U7G U8A U10C U11G C12G C13U | 1.05
U7G U8A U10C U11C C12A C13A | 1.2

Variant | aptazyme ON/OFF ratio
U7G U8A U10C U11C C12A C13G | 1.16
U7G U8A U10C U11C C12A C13U | 1.23
U7G U8A U10C C12U C13G | 1.26
U7G U8A U10C C12U C13A | 1.24
U7G U8A U10C C12U C13U | 1.32
U7G U8C G9A U10C U11C C13U | 1.01
U7G U8C G9A U10C U11C C13A | 1.02
U7G U8C G9A U10C U11C C13G | 1.03
U7G U8A U10G C12A C13G | 1.11
U7G U8A U10G C12A C13U | 1.15
U7G U8A U10G C12A C13A | 1.58
U7G U8A U10G | 1.28
U7G U8C G9A U10A C12U C13A | 1.15
U7G U8C G9A U10A C12U C13G | 1.13
U7G U8C G9A U10A C12U C13U | 1.05
U7G U8C G9A U10A U11G C12U C13U | 1.21
U7G U8C G9A U10A U11G C12U C13A | 1.16
U7G U8C G9A U10A U11G C12U C13G | 1.2
U7G U8C G9A U10C U11G C13A | 1.16
U7G U8C G9A U10C U11G C13G | 1.27
U7G U8C G9A U10C U11G C13U | 1.24
U7G U8C G9A U10A U11G C12A C13G | 1.12
U7G U8C G9A U10A U11G C12A C13U | 1.09
U7G U8C G9A U10A U11G C12A C13A | 1.06

Variant | aptazyme ON/OFF ratio
U7G U8A U10G U11G C13U | 1.42
U7G U8A U10G U11G C13A | 1.28
U7G U8A U10G U11G C13G | 1.43
U7G U8C G9A U10A C13G | 1.06
U7G U8C G9A U10A C13A | 1.19
U7G U8C G9A U10A C13U | 1.83
U7G U8C G9A U10A U11G C12G C13G | 1.14
U7G U8C G9A U10A U11G C12G C13A | 1.08
U7G U8C G9A U10A U11G C12G C13U | 1.09
U7G U8C G9A U10G C12A C13U | 1.09
U7G U8C G9A U10G C12A C13A | 1.07
U7G U8C G9A U10G C12A C13G | 1.03
U7G U8C G9A U10C U11G C12A C13U | 1.16
U7G U8C G9A U10C U11G C12A C13G | 1.08
U7G U8C G9A U10C U11G C12A C13A | 1.11
U7G U8A U10C U11G C12G | 1.49
U7G U8A U10C U11G C12U | 1.32
U7G U8A U10C U11G C12A | 1.27
U7G U8C G9A U10A C12A C13G | 1.13
U7G U8C G9A U10A C12A C13A | 1.23
U7G U8C G9A U10A C12A C13U | 1.2
U7G U8A U11A C13G | 1.15
U7G U8A U11A C13A | 1.45
U7G U8A U11A C13U | 1.4

Variant | aptazyme ON/OFF ratio
U7G U8A U10C U11C C13G | 1.05
U7G U8A U10C U11C C13U | 1.01
U7G U8A U10C U11C C13A | 1.05
U7G U8C G9A U10C U11A C13U | 1.28
U7G U8C G9A U10C U11A C13A | 1.18
U7G U8C G9A U10C U11A C13G | 1.07
U7G U8C G9A U10A U11C C13A | 1.1
U7G U8C G9A U10A U11C C13U | 1.08
U7G U8C G9A U10A U11C C13G | 1.05
U7G U8C C12G | 1.12
U7G U8C C12U | 1.2
U7G U8C C12A | 1.05
U7G U8C C12U C13G | 1.19
U7G U8C C12U C13U | 1.07
U7G U8C C12U C13A | 1.05
U7G U8C G9A U10C U11A C12A C13U | 1.14
U7G U8C G9A U10C U11A C12A C13G | 1.11
U7G U8C G9A U10C U11A C12A C13A | 1.15
U7G U8A U11C C12G | 1.24
U7G U8A U11C C12U | 1.41
U7G U8A U11C C12A | 1.29
U7G U8C G9A U10A C12A | 1.15
U7G U8C G9A U10A C12G | 1.24
